According to patent US20260007750A1:

Assays:
[1] = biological target: Pak2 kinase (UniProt Q13177); test: cell-based or functional assay
[2] = biological target: NefD123G (Nef variant)
[3] = biological target: HIV-1 Nef protein (wild-type, HIV-1 Clade B)
[4] = biological target: NefWP (Nef variant)

Row | Molecule | phosphorylation of Pak2 at S55, quantitative phosphoproteomics of CAR T cells stimulated by NALM6 cells (Nef-WT compared to NefAxxA) (log2 fold change) [1] | phosphorylation of Pak2 at S152, quantitative phosphoproteomics of CAR T cells stimulated by NALM6 cells (Nef-WT compared to NefAxxA) (log2 fold change) [1] | Pak2 phosphorylation by gel electrophoresis / Western blot [2] | Pak2 phosphorylation by gel electrophoresis / Western blot [3] | Pak2 phosphorylation by gel electrophoresis / Western blot [4]
1 | HIV-1 Nef protein (wild-type, HIV-1 Clade B) | 2.15 | 1.17 |  |  | 
2 | Pak2 kinase (protein) SDNGELEDKPPAPPVRMSSTIFSTGGKDPLSANHSLKPLPSVPEEKKPRHKIISIFSGTEKGSKKKEKERPEISPPSDFEHTIHVGFDAVTGEFTGMPEQWARLLQTSNITKLEQKKNPQAVLDVLKFYDSNTVKQKYLSFTPPEKDGFPSGTPALNAKGTEAPAVVTEEEDDDEETAPPVIAPRPDHTKSIYTRSVIDPVPAPVGDSHVDGAAKSLDKQKKKTKMTDEEIMEKLRTIVSIGDPKKKYTRYEKIGQGASGTVFTATDVALGQEVAIKQINLQKQPKKELIINEILVMKELKNPNIVNFLDSYLVGDELFVVMEYLAGGSLTDVVTETCMDEAQIAAVCRECLQALEFLHANQVIHRDIKSDNVLLGMEGSVKLTDFGFCAQITPEQSKRSTMVGTPYWMAPEVVTRKAYGPKVDIWSLGIMAIEMVEGEPPYLNENPLRALYLIATNGTPELQNPEKLSPIFRDFLNRCLEMDVEKRGSAKELLQHPFLKLAKPLSSLTPLIMAAKEAMKSNR |  |  | Nef variants that promote CAR T cell activity in vivo (Nef WT, NefWP and NefD123G) but not NefAxxA expressing CARs also promoted Pak2 phosphorylation | Nef variants that promote CAR T cell activity in vivo (Nef WT, NefWP and NefD123G) but not NefAxxA expressing CARs also promoted Pak2 phosphorylation | Nef variants that promote CAR T cell activity in vivo (Nef WT, NefWP and NefD123G) but not NefAxxA expressing CARs also promoted Pak2 phosphorylation
